Laboratory results published in IntAct's records for PubMed 17641689.

B1: Retinoic acid receptor RXR-alpha (Mus musculus), P28700 (parent)
chain: MDTKHFLPLDFSTQVNSSSLNSPTGRGSMAVPSLHPSLGPGIGSPLGSPGQLHSPISTLSSPINGMGPPFSVISSPMGPHSMSVPTTPTLGFGTGSPQLNSPMNPVSSTEDIKPPLGLNGVLKVPAHPSGNMASFTKHICAICGDRSSGKHYGVYSCEGCKGFFKRTVRKDLTYTCRDNKDCLIDKRQRNRCQYCRYQKCLAMGMKREAVQEERQRGKDRNENEVESTSSANEDMPVEKILEAELAVEPKTETYVEANMGLNPSSPNDPVTNICQAADKQLFTLVEWAKRIPHFSELPLDDQVILLRAGWNELLIASFSHRSIAVKDGILLATGLHVHRNSAHSAGVGAIFDRVLTELVSKMRDMQMDKTELGCLRAIVLFNPDSKGLSNPAEVEALREKVYASLEAYCKHKYPEQPGRFAKLLLRLPALRSIGLKCLEHLFFFKLIGDTPIDTFLMEMLEAPHQAT
partner: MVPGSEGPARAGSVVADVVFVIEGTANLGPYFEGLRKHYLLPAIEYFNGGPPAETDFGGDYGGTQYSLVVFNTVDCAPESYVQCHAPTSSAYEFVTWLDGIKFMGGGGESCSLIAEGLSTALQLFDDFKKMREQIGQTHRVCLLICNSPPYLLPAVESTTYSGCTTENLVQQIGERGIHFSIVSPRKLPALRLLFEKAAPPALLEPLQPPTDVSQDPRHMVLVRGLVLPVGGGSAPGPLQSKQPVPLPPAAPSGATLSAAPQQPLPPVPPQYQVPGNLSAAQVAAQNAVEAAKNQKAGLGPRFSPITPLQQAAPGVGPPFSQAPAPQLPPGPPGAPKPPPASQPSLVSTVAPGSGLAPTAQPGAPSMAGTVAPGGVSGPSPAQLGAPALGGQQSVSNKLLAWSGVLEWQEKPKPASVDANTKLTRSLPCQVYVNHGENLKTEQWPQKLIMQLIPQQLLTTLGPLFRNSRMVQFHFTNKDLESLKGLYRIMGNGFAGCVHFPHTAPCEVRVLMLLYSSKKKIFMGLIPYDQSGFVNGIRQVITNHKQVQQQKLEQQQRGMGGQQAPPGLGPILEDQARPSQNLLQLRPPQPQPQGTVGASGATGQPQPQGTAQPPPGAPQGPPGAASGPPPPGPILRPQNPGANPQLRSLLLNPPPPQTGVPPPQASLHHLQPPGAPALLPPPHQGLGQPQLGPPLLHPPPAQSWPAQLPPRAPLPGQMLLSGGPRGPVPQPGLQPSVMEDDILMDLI
B2: Retinoic acid receptor alpha (Homo sapiens), P10276 (parent)
chain: MASNSSSCPTPGGGHLNGYPVPPYAFFFPPMLGGLSPPGALTTLQHQLPVSGYSTPSPATIETQSSSSEEIVPSPPSPPPLPRIYKPCFVCQDKSSGYHYGVSACEGCKGFFRRSIQKNMVYTCHRDKNCIINKVTRNRCQYCRLQKCFEVGMSKESVRNDRNKKKKEVPKPECSESYTLTPEVGELIEKVRKAHQETFPALCQLGKYTTNNSSEQRVSLDIDLWDKFSELSTKCIIKTVEFAKQLPGFTTLTIADQITLLKAACLDILILRICTRYTPEQDTMTFSDGLTLNRTQMHNAGFGPLTDLVFAFANQLLPLEMDDAETGLLSAICLICGDRQDLEQPDRVDMLQEPLLEALKVYVRKRRPSRPHMFPKMLMKITDLRSISAKGAERVITLKMEIPGSMPPLIQEMLENSEGLDTLSGQPGGGGRDGGGLAPPPGSCSPSLSPSSNRSSPATHSP
partner: B1 partner

Variants of: B1
Settings: with med25_human MED25, Q71SY5

effect of a mutation on the interaction	Variant
disrupting interaction	MDTKHFLPLDFSTQVNSSSLNSPTGRGSMAVPSLHPSLGPGIGSPLGSPGQLHSPISTLSSPINGMGPPFSVISSPMGPHSMSVPTTPTLGFGTGSPQLNSPMNPVSSTEDIKPPLGLNGVLKVPAHPSGNMASFTKHICAICGDRSSGKHYGVYSCEGCKGFFKRTVRKDLTYTCRDNKDCLIDKRQRNRCQYCRYQKCLAMGMKREAVQEERQRGKDRNENEVESTSSANEDMPVEKILEAELAVEPKTETYVEANMGLNPSSPNDPVTNICQAADKQLFTLVEWAKRIPHFSELPLDDQVILLRAGWNELLIASFSHRSIAVKDGILLATGLHVHRNSAHSAGVGAIFDRVLTELVSKMRDMQMDKTELGCLRAIVLFNPDSKGLSNPAEVEALREKVYASLEAYCKHKYPEQPGRFAKLLLRLPALRSIGLKCLEHLFFFKLIGDTPIDTALMEMLEAPHQAT [F455A]

Variants of: B1
Settings: with med25_human MED25, Q71SY5
Remark: another data set of the same source

effect of a mutation on the interaction	Variant
disrupting interaction	MDTKHFLPLDFSTQVNSSSLNSPTGRGSMAVPSLHPSLGPGIGSPLGSPGQLHSPISTLSSPINGMGPPFSVISSPMGPHSMSVPTTPTLGFGTGSPQLNSPMNPVSSTEDIKPPLGLNGVLKVPAHPSGNMASFTKHICAICGDRSSGKHYGVYSCEGCKGFFKRTVRKDLTYTCRDNKDCLIDKRQRNRCQYCRYQKCLAMGMKREAVQEERQRGKDRNENEVESTSSANEDMPVEKILEAELAVEPKTETYVEANMGLNPSSPNDPVTNICQAADKQLFTLVEWAKRIPHFSELPLDDQVILLRAGWNELLIASFSHRSIAVKDGILLATGLHVHRNSAHSAGVGAIFDRVLTELVSKMRDMQMDKTELGCLRAIVLFNPDSKGLSNPAEVEALREKVYASLEAYCKHKYPEQPGRFAKLLLRLPALRSIGLKCLEHLFFFKLIGDTPIDTFLMEALEAPHQAT [M459A]
disrupting interaction	MDTKHFLPLDFSTQVNSSSLNSPTGRGSMAVPSLHPSLGPGIGSPLGSPGQLHSPISTLSSPINGMGPPFSVISSPMGPHSMSVPTTPTLGFGTGSPQLNSPMNPVSSTEDIKPPLGLNGVLKVPAHPSGNMASFTKHICAICGDRSSGKHYGVYSCEGCKGFFKRTVRKDLTYTCRDNKDCLIDKRQRNRCQYCRYQKCLAMGMKREAVQEERQRGKDRNENEVESTSSANEDMPVEKILEAELAVEPKTETYVEANMGLNPSSPNDPVTNICQAADKQLFTLVEWAKRIPHFSELPLDDQVILLRAGWNELLIASFSHRSIAVKDGILLATGLHVHRNSAHSAGVGAIFDRVLTELVSKMRDMQMDKTELGCLRAIVLFNPDSKGLSNPAEVEALREKVYASLEAYCKHKYPEQPGRFAKLLLRLPALRSIGLKCLEHLFFFKLIGDTPIDTFLMEMAEAPHQAT [L460A]

Variants of: B1
Settings: with med25_human MED25, Q71SY5
Remark: another data set of the same source

effect of a mutation on the interaction	Variant
decreasing interaction	MDTKHFLPLDFSTQVNSSSLNSPTGRGSMAVPSLHPSLGPGIGSPLGSPGQLHSPISTLSSPINGMGPPFSVISSPMGPHSMSVPTTPTLGFGTGSPQLNSPMNPVSSTEDIKPPLGLNGVLKVPAHPSGNMASFTKHICAICGDRSSGKHYGVYSCEGCKGFFKRTVRKDLTYTCRDNKDCLIDKRQRNRCQYCRYQKCLAMGMKREAVQEERQRGKDRNENEVESTSSANEDMPVEKILEAELAVEPKTETYVEANMGLNPSSPNDPVTNICQAADKQLFTLVEWAKRIPHFSELPLDDQVILLRAGWNELLIASFSHRSIAVKDGILLATGLHVHRNSAHSAGVGAIFDRVLTELVSKMRDMQMDKTELGCLRAIVLFNPDSKGLSNPAEVEALREKVYASLEAYCKHKYPEQPGRFAKLLLRLPALRSIGLKCLEHLFFFKLIGDTPIDTFLMEMLQAPHQAT [E461Q]

Variants of: B2
Settings: with med25_human MED25, Q71SY5

effect of a mutation on the interaction	Variant
disrupting interaction	MASNSSSCPTPGGGHLNGYPVPPYAFFFPPMLGGLSPPGALTTLQHQLPVSGYSTPSPATIETQSSSSEEIVPSPPSPPPLPRIYKPCFVCQDKSSGYHYGVSACEGCKGFFRRSIQKNMVYTCHRDKNCIINKVTRNRCQYCRLQKCFEVGMSKESVRNDRNKKKKEVPKPECSESYTLTPEVGELIEKVRKAHQETFPALCQLGKYTTNNSSEQRVSLDIDLWDKFSELSTKCIIKTVEFAKQLPGFTTLTIADQITLLKAACLDILILRICTRYTPEQDTMTFSDGLTLNRTQMHNAGFGPLTDLVFAFANQLLPLEMDDAETGLLSAICLICGDRQDLEQPDRVDMLQEPLLEALKVYVRKRRPSRPHMFPKMLMKITDLRSISAKGAERVITLKMEIPGSMPPLIQQMLENSEGLDTLSGQPGGGGRDGGGLAPPPGSCSPSLSPSSNRSSPATHSP [E412Q]
disrupting interaction	MASNSSSCPTPGGGHLNGYPVPPYAFFFPPMLGGLSPPGALTTLQHQLPVSGYSTPSPATIETQSSSSEEIVPSPPSPPPLPRIYKPCFVCQDKSSGYHYGVSACEGCKGFFRRSIQKNMVYTCHRDKNCIINKVTRNRCQYCRLQKCFEVGMSKESVRNDRNKKKKEVPKPECSESYTLTPEVGELIEKVRKAHQETFPALCQLGKYTTNNSSEQRVSLDIDLWDKFSELSTKCIIKTVEFAKQLPGFTTLTIADQITLLKAACLDILILRICTRYTPEQDTMTFSDGLTLNRTQMHNAGFGPLTDLVFAFANQLLPLEMDDAETGLLSAICLICGDRQDLEQPDRVDMLQEPLLEALKVYVRKRRPSRPHMFPKMLMKITDLRSISAKGAERVITLKMEIPGSMPPLIQEMLQNSEGLDTLSGQPGGGGRDGGGLAPPPGSCSPSLSPSSNRSSPATHSP [E415Q]

Variants of: B2
Settings: with med25_human MED25, Q71SY5
Remark: another data set of the same source

effect of a mutation on the interaction	Variant
disrupting interaction	MASNSSSCPTPGGGHLNGYPVPPYAFFFPPMLGGLSPPGALTTLQHQLPVSGYSTPSPATIETQSSSSEEIVPSPPSPPPLPRIYKPCFVCQDKSSGYHYGVSACEGCKGFFRRSIQKNMVYTCHRDKNCIINKVTRNRCQYCRLQKCFEVGMSKESVRNDRNKKKKEVPKPECSESYTLTPEVGELIEKVRKAHQETFPALCQLGKYTTNNSSEQRVSLDIDLWDKFSELSTKCIIKTVEFAKQLPGFTTLTIADQITLLKAACLDILILRICTRYTPEQDTMTFSDGLTLNRTQMHNAGFGPLTDLVFAFANQLLPLEMDDAETGLLSAICLICGDRQDLEQPDRVDMLQEPLLEALKVYVRKRRPSRPHMFPKMLMKITDLRSISAKGAERVITLKMEIPGSMPPLIQEMAENSEGLDTLSGQPGGGGRDGGGLAPPPGSCSPSLSPSSNRSSPATHSP [L414A]
disrupting interaction	MASNSSSCPTPGGGHLNGYPVPPYAFFFPPMLGGLSPPGALTTLQHQLPVSGYSTPSPATIETQSSSSEEIVPSPPSPPPLPRIYKPCFVCQDKSSGYHYGVSACEGCKGFFRRSIQKNMVYTCHRDKNCIINKVTRNRCQYCRLQKCFEVGMSKESVRNDRNKKKKEVPKPECSESYTLTPEVGELIEKVRKAHQETFPALCQLGKYTTNNSSEQRVSLDIDLWDKFSELSTKCIIKTVEFAKQLPGFTTLTIADQITLLKAACLDILILRICTRYTPEQDTMTFSDGLTLNRTQMHNAGFGPLTDLVFAFANQLLPLEMDDAETGLLSAICLICGDRQDLEQPDRVDMLQEPLLEALKVYVRKRRPSRPHMFPKMLMKITDLRSISAKGAERVITLKMEIPGSMPPLIQEALENSEGLDTLSGQPGGGGRDGGGLAPPPGSCSPSLSPSSNRSSPATHSP [M413A]

Variants of: B2
Settings: with med25_human MED25, Q71SY5
Remark: another data set of the same source

effect of a mutation on the interaction	Variant
disrupting interaction	MASNSSSCPTPGGGHLNGYPVPPYAFFFPPMLGGLSPPGALTTLQHQLPVSGYSTPSPATIETQSSSSEEIVPSPPSPPPLPRIYKPCFVCQDKSSGYHYGVSACEGCKGFFRRSIQKNMVYTCHRDKNCIINKVTRNRCQYCRLQKCFEVGMSKESVRNDRNKKKKEVPKPECSESYTLTPEVGELIEKVRKAHQETFPALCQLGKYTTNNSSEQRVSLDIDLWDKFSELSTKCIIKTVEFAKQLPGFTTLTIADQITLLKAACLDILILRICTRYTPEQDTMTFSDGLTLNRTQMHNAGFGPLTDLVFAFANQLLPLEMDDAETGLLSAICLICGDRQDLEQPDRVDMLQEPLLEALKVYVRKRRPSRPHMFPKMLMKITDLRSISAKGAERVITLKMEIPGSMPPAIQEMLENSEGLDTLSGQPGGGGRDGGGLAPPPGSCSPSLSPSSNRSSPATHSP [L409A]
disrupting interaction	MASNSSSCPTPGGGHLNGYPVPPYAFFFPPMLGGLSPPGALTTLQHQLPVSGYSTPSPATIETQSSSSEEIVPSPPSPPPLPRIYKPCFVCQDKSSGYHYGVSACEGCKGFFRRSIQKNMVYTCHRDKNCIINKVTRNRCQYCRLQKCFEVGMSKESVRNDRNKKKKEVPKPECSESYTLTPEVGELIEKVRKAHQETFPALCQLGKYTTNNSSEQRVSLDIDLWDKFSELSTKCIIKTVEFAKQLPGFTTLTIADQITLLKAACLDILILRICTRYTPEQDTMTFSDGLTLNRTQMHNAGFGPLTDLVFAFANQLLPLEMDDAETGLLSAICLICGDRQDLEQPDRVDMLQEPLLEALKVYVRKRRPSRPHMFPKMLMKITDLRSISAKGAERVITLKMEIPGSMPPLAQEMLENSEGLDTLSGQPGGGGRDGGGLAPPPGSCSPSLSPSSNRSSPATHSP [I410A]
